The source of these data is patent US8889621B2, “Inhibiting binding of FGF23 to the binary FGFR-Klotho complex for the treatment of hypophosphatemia” (New York University, priority 2009, dated 2014).

Entries after “also recorded” stand apart in the source; their conditions may differ.

In one assay the test system is Sprague-Dawley rats. Kind of assay: Plasma and urine phosphate in Sprague-Dawley rats after IV injection. It is filed as in vivo, rat. To be noted: IV 0.1 μg kg body weight^−1, 3 h, healthy rats. From the text: The anti-phosphaturic activity of FGF23 C-terminal peptides was examined in normal Sprague-Dawley rats and in Hyp mice, a mouse model of human X-linked hypophosphatemia (XLH) (Beck et al., “Pex/PEX Tissue Distribution and Evidence for a Deletion in the 3′ Region of the Pex Gene in X-linked Hypophosphatemic Mice,” J Clin Invest 99(6):1200-1209 (1997), Eicher et al., “Hypophosphatemia: Mouse Model for Human Familial Hypophosphatemic (Vitamin D-resistant) Rickets,” Proc Natl Acad Sci USA 73(12):4667-4671 […], Strom et al., “Pex Gene Deletions in Gy and Hyp Mice Provide Mouse Models for X-linked Hypophosphatemia,” Hum Mol Genet. 6(2):165-171 (1997), which are hereby incorporated by reference in their entirety). The animals were fed a complete, fixed formula diet containing 0.94% phosphate. Anesthetized rats (220-250 g body weight) were administered IV either FGF23^28-251 (0.1 μg kg body weight^−1) or FGF23^180-251 (0.1 μg kg body weight^−1) or vehicle. Before and 3 h after the injection, blood was drawn from the carotid artery and urine was collected through bladder catheterization. Plasma and urine chemistry of animals were analyzed using Vitros Chemistry Analyzer (Ortho-Clinical Diagnosis). 10- to 15-week old Hyp mice were fasted for 8-12 h before administering IP either FGF23^180-251 (1 mg) or FGF23^180-205 (860 μg) or vehicle. Before and 2 h, 4 h, 8 h, and 24 h after the injection, urine and serum samples were collected. Phosphate concentrations in urine and serum were determined using Phosphorus Liqui-UV Test (Stanbio Laboratory), and urine creatinine levels were measured using DetectX™ Urinary Creatinine Detection Kit (LuminosAssays).

A further assay concerns NaPi-2C. Put plainly: NaPi-2C protein abundance in apical brush border membrane of rat kidney. It is filed as in vivo. To be noted: IV 0.1 μg kg body weight^−1, 3 h post injection, vs vehicle. On the procedure: Immunoblot analysis of NaPi-2A and NaPi-2C protein abundance in renal cortex tissue and isolated brush border membrane vesicles (BBMV), and NaPi-2A immunostaining of renal tissue were performed as described (Bacic et al., “Activation of Dopamine Dl-like Receptors Induces Acute Internalization of the Renal Na^+/phosphate Cotransporter NaPi-IIa in Mouse Kidney and OK cells,” Am J Physiol Renal Physiol 288(4):F740-747 (2005), Loffing et al., “Renal Na/H Exchanger NHE-3 and Na—PO4 Cotransporter NaPi-2 Protein Expression in Glucocorticoid Excess and Deficient States,” J Am Soc Nephrol 9(9):1560-1567 (1998), Moe et al., “Dietary NaCl Modulates Na(+)-H+ Antiporter Activity in Renal Cortical Apical Membrane Vesicles,” Am J Physiol 260(1 Pt 2):F130-137 (1991), which are hereby incorporated by reference in their entirety).
For immunoblot, rat kidney cortices were dissected and homogenized, and BBMV were isolated (Loffing et al., “Renal Na/H Exchanger NHE-3 and Na—PO4 Cotransporter NaPi-2 Protein Expression in Glucocorticoid Excess and Deficient States,” J Am Soc Nephrol 9(9):1560-1567 (1998), Moe et al., “Dietary NaCl Modulates Na(+)-H+ Antiporter Activity in Renal Cortical Apical Membrane Vesicles. Am J Physiol 260(1 Pt 2):F130-137 (1991), which are hereby incorporated by reference in their entirety). […]

B1: FGF23^28-251: human FGF23 (A28 to I251), bioactive full-length ligand expressed in E. coli (protein, listed as Homo sapiens)
chain: ASPLLGSSWGGLIHLYTATARNSYHLQIHKNGHVDGAPHQTIYSALMIRSEDAGFVVITGVMSRRYLCMDFRGNIFGSHYFDPENCRFQHQTLENGYDVYHSPQYHFLVSLGRAKRAFLPGMNPPPYSQFLSRRNEIPLIHFNTPIPRRHTRSAEDDSERDPLNVLKPRARMTPAPASCSQELPSAEDNSPMASDPLGVVRGGRVNTHAGGTGPEGCRPFAKFI
Take B1: in the assay on Sprague-Dawley rats, the “excretion rate and fractional excretion of phosphate” value is given as “increased”; the plasma phosphate entry is given as “significant decrease; also recorded: induced hypophosphatemia”. Moreover, the “NaPi-2C protein expression in the apical brush border membrane” value in the assay on NaPi-2C is on record as “diminished”.

B2: FGF23^180-251: 72-amino acid C-terminal tail of human FGF23 (S180 to I251), expressed in E. coli (protein, listed as Homo sapiens)
chain: SAEDDSERDPLNVLKPRARMTPAPASCSQELPSAEDNSPMASDPLGVVRGGRVNTHAGGTGPEGCRPFAKFI
As to B2, in the assay with Sprague-Dawley rats, the “excretion rate and fractional excretion of phosphate” value was “renal phosphate retention; also recorded: decreased”; the plasma phosphate entry is reported as “induced hyperphosphatemia”. Also, the “NaPi-2C protein expression in the apical brush border membrane” value in the assay with NaPi-2C is “increased”.
